Substitutions are numbered along the chain they refer to. Numbers in names are those of the source. Read-outs that look alike come from different tables or passages of the source.
Columns and labels:
Rim1 (mitochondrial SSB) [1] = target: T1, Rim1 (mitochondrial SSB) (Saccharomyces cerevisiae, UniProt P32445 17-135); assay: Cy3 fluorescence titration
T1 sequence: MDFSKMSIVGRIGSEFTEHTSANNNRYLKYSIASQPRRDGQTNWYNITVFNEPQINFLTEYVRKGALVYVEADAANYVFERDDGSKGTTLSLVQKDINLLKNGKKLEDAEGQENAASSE

Rim1 Y85H = target: T2, Rim1 Y85H (Saccharomyces cerevisiae, UniProt P32445 17-135, Y85H); assay: sedimentation equilibrium
T2 sequence: T1 sequence with Y69H

Rim1 (mitochondrial SSB) [2] = target: T1, Rim1 (mitochondrial SSB); assay: sedimentation equilibrium
Rim1 (mitochondrial SSB) [3] = target: T1, Rim1 (mitochondrial SSB); assay: Cy3 fluorescence titration; remark: listed apart in the source
AUC [4] = target: the molecule itself; assay: AUC
Rim1 (mitochondrial SSB) [5] = target: T1, Rim1 (mitochondrial SSB); assay: FRET titration
Rim1 (mitochondrial SSB) [6] = target: T1, Rim1 (mitochondrial SSB); assay: FRET titration; remark: listed apart in the source
AUC [7] = target: the molecule itself; assay: AUC; remark: listed apart in the source
AUC [8] = target: the molecule itself; assay: AUC; remark: listed apart in the source
Rim1 (mitochondrial SSB) [9] = target: T1, Rim1 (mitochondrial SSB); assay: Cy3 fluorescence titration; remark: listed apart in the source
Rim1 (mitochondrial SSB) [10] = target: T1, Rim1 (mitochondrial SSB); assay: Cy3 fluorescence titration; remark: listed apart in the source
Rim1 (mitochondrial SSB) [11] = target: T1, Rim1 (mitochondrial SSB); assay: FRET titration; remark: listed apart in the source

TTTTTTTTTTTTTTTTTTTTTTTTTTTTTTTTTTTTTTT (ssDNA, internal Cy3 before last T) [dT38-Cy3-T]
binding result (Rim1 (mitochondrial SSB) [1]): binds

TTTTTTTTTTTTTTT (ssDNA) [Cy3-labeled dT15 (AUC)]
binding result (Rim1 Y85H): binds
binding result (Rim1 (mitochondrial SSB) [2]): binds

TTTTTTTTTTTTTTTTTTTTTTTTTTTTT (ssDNA, internal Cy3 before last T) [dT28-Cy3-T]
binding result (Rim1 (mitochondrial SSB) [3]): binds

B1: Human mitochondrial SSB, mitochondrial form (amino acids 17-148) (natural protein, UniProt Q04837 17-148, looked up)
chain: ESETTTSLVLERSLNRVHLLGRVGQDPVLRQVEGKNPVTIFSLATNEMWRSGDSEVYQLGDVSQKTTWHRISVFRPGLRDVAYQYVKKGSRIYLEGKIDYGEYMDKNNVRRQATTIIADNIIFLSDQTKEKE
binding result (AUC [4]): binds

TTTTTTTTTTTTTTTTTTTTTTTTTTTTTTTTTTTTTTTTT (ssDNA, internal Cy3 before last T) [Cy5.5-dT40-Cy3-T]
binding result (Rim1 (mitochondrial SSB) [5]): binds

B2: Cy5-dT68-Cy3-T (ssDNA)
DNA: TTTTTTTTTTTTTTTTTTTTTTTTTTTTTTTTTTTTTTTTTTTTTTTTTTTTTTTTTTTTTTTTTTTTT
modifications: internal Cy3 before last T
binding result (Rim1 (mitochondrial SSB) [6]): binds

B3: Rim1 harboring the mutation Y85H (amino acids 17-135) (natural protein, S. cerevisiae, UniProt P32445 17-135, looked up)
chain: T1 sequence with Y69H
stoichiometry N (AUC [7]): 2
stoichiometry N (AUC [8]): 4

TTTTTTTTTTTTTTTTTTTT (ssDNA) [Cy3-labeled dT20 (AUC)]
binding result (Rim1 Y85H): binds

TTTTTTTTTTTTTTTT (ssDNA, internal Cy3 before last T) [dT15-Cy3-T]
binding result (Rim1 (mitochondrial SSB) [9]): binds

TTTTTTTTTTTTTTTTTTTTT (ssDNA, internal Cy3 before last T) [dT20-Cy3-T]
binding result (Rim1 (mitochondrial SSB) [10]): binds

TTTTTTTTTTTTTTTTTTTTTTTTTTTTTTTTTTTTTTTTTTTTTT (ssDNA, internal Cy3 before last T) [Cy5.5-dT45-Cy3-T]
binding result (Rim1 (mitochondrial SSB) [11]): binds

From article PMC6101547 (Nucleic Acids Research, 2018)
